Results as given in article PMC4691288.

Target: WXyn43, GH43 β-xylosidase from Weissella sp. strain 92 (full-length enzyme) (Weissella sp. strain 92)
Experiment: SEC

stoichiometry N: 4
Substance: WXyn43, GH43 β-xylosidase from Weissella sp. strain 92 (full-length enzyme)
